# T1: His6-S-Tag-Gfd1 wild type (S. cerevisiae, UniProt Q04839 1-188)
# T1 sequence (looked up): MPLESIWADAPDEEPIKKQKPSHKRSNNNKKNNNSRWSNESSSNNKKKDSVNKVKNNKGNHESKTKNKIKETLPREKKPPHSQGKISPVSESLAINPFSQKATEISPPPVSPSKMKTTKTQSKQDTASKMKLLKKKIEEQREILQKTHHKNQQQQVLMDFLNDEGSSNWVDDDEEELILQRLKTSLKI
# T2: Nab2-N (residues 1–105 of Nab2), untagged (S. cerevisiae, UniProt P32505 1-105)
# T2 sequence (looked up): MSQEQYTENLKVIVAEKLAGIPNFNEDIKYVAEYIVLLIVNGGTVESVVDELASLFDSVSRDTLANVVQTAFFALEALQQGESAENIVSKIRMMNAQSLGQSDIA
# Columns and labels:
# [1] = molecular target: T1, His6-S-Tag-Gfd1 wild type; assay: pull-down
# [2] = molecular target: T2, Nab2-N (residues 1–105 of Nab2), …; assay: crystal structure
Binder,binding result [1],binding result [2]
"GST-Nab2-N-WT (residues 1–97) (domain or fragment, S. cerevisiae, UniProt P32505 1-97, looked up) MSQEQYTENLKVIVAEKLAGIPNFNEDIKYVAEYIVLLIVNGGTVESVVDELASLFDSVSRDTLANVVQTAFFALEALQQGESAENIVSKIRMMNAQ",binds,–
"GST-Nab2-N-L55W (residues 1–97) (domain or fragment, S. cerevisiae, UniProt P32505 1-97, looked up) MSQEQYTENLKVIVAEKLAGIPNFNEDIKYVAEYIVLLIVNGGTVESVVDELASWFDSVSRDTLANVVQTAFFALEALQQGESAENIVSKIRMMNAQ",binds,–
"GST-Nab2-N-F56D (residues 1–97) (domain or fragment, S. cerevisiae, UniProt P32505 1-97, looked up) MSQEQYTENLKVIVAEKLAGIPNFNEDIKYVAEYIVLLIVNGGTVESVVDELASLDDSVSRDTLANVVQTAFFALEALQQGESAENIVSKIRMMNAQ",binds,–
"SKQDTASKMKLLKKKIEEQREILQKTHHKN (peptide, UniProt Q04839 122-151, looked up) [Gfd1 122–151 (fragment of Gfd1 released from GST-TEV-Gfd1 122–151 by TEV protease)]",–,binds

# Source: article PMC2898303 (The Journal of Biological Chemistry, 2010)
